The series addresses T1, M.HhaI (DNA cytosine-C5 methyltransferase) (Haemophilus haemolyticus, UniProt P05102 1-327).
T1 sequence: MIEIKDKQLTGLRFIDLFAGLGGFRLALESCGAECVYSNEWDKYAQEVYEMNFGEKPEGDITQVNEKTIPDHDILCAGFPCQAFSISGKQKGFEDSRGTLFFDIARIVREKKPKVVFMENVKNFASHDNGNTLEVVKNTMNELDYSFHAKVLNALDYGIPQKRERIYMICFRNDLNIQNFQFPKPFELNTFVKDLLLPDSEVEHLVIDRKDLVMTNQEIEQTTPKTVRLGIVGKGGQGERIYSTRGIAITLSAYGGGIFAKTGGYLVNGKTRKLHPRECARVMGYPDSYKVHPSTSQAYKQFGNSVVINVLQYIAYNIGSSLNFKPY
Put plainly: anion-exchange HPLC; complex of M.HhaI with coupling product; 80 uM cofactor 5, 10 uM duplex, 11 uM M.HhaI, 37 C 3 h; stable to chromatography, released at 65 C; 10 mM Tris-HCl pH 7.4, 50 mM NaCl, 0.05 mM EDTA, 2 mM beta-mercaptoethanol, 37 C; anion-exchange HPLC (Poros 10 HQ) in KCl gradient 0.2-1 M. The settings on record: label: biotin (via cofactor 5); blunt.

B1: duplex ODN I5·II (coupling product with aziridine cofactor 5) (dsDNA)
DNA 1: TGTCAGCGCATGA
DNA 2: TCATGCGCTGACA
modifications: target C (position 7 of strand I) alkylated with 7-deazaadenosylaziridine-biotin cofactor 5; 5-methyl-dC at position 6 of strand II
As to B1, the binding result is “binds”.

Values taken from PMC6332214, “A 7-Deazaadenosylaziridine Cofactor for Sequence-Specific Labeling of DNA by the DNA Cytosine-C5 Methyltransferase M.HhaI”.
